The record followed here is the supplement of paper PMC11780869.

The subject of one data set is Bacillus subtilis. In words: cleaved RNA product abundance (RNA/gDNA barcode ratio) relative to median wild-type variant (ratio to wild type); higher = more accumulation of the downstream cleavage product. The following applies: experiment (reporter, strain, medium): exp 2b: truncated aprE reporter, strain BJT200; cleavage site: cggR-gapA (positions -7 to +36 mutated). A digest of the protocol: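 Cleaved product abundance was measured with barcoded reporter mRNAs (truncated aprE or tetM) carrying mutagenized RNase Y cleavage-site windows in the B. subtilis chromosome. Cultures in LB at 37°C grew from OD600 0.0003 to 0.3. Gel-selected cleaved RNA was reverse transcribed and barcode-sequenced with genomic DNA barcodes, and the RNA:gDNA barcode ratio per construct was scaled to the median construct bearing the unmutated site.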
In the case of “ACAGACGAAGGAGCCGCCAAGAAGTTATTAACGGATGAATAATCCCTCAATATAAATATCTCTCACTTATTTAAA”, the “cleaved RNA product abundance” value amounted to 0.0909.

For the sequence “ACAGACGAAGGAGCCGCCAAGAAGTTATTAAGGGATGAATAATCCCTCAATATAAATATCTCTCACTTATTTAAA”, the “cleaved RNA product abundance” value came to 0.985.

With “ACAGACGAAGGAGCCGCCAAGAAGTTATTAAGGGATGAATAATCCCTCACTATAAATATCTCTCACTTATTTAAA”, the “cleaved RNA product abundance” value was determined as 0.191.

Consider “ACAGACGAAGGAGCCGCCAAGAAGTTATTAAGGGATGAATAATCCCTTAATATAAATATCTCTCACTTATTTAAA”, for which the “cleaved RNA product abundance” value stood at 0.21.

“ACAGACGAAGGAGCCGCCAAGAAGTTATTAAGGGATGAATAATCCTTCAATATAAATATCTCTCACTTATTTAAA”: the “cleaved RNA product abundance” value stood at 0.518.

For “ACAGACGAAGGAGCCGCGAAGAAGTAATTAAGGGATGAATAATCCCTCAATATAAATATCTCTCACTTATTTAAA”, the “cleaved RNA product abundance” value amounted to 0.178.

Regarding “ACAGACGAAGGAGCCGCGAAGAAGTTATTAACGGATGAATAATCCCTCAATATAAATATCTCTCACTTATTTAAA”, the “cleaved RNA product abundance” value was determined as 0.164.

The same data set, now with this note: experiment (reporter, strain, medium): exp 4a: truncated aprE reporter, strain BJT201 with 2% xylose (RNase J1 expressed); cleavage site: cggR-gapA (positions -7 to +36 mutated).
For “ACAGACGAAGGAGCCGCCAAGAAGTTATTAAAGGATGAATAATCCCTCAATATAAATATCTCTCACTTATTTAAA”, the “cleaved RNA product abundance” value worked out at 0.144.

In the case of “ACAGACGAAGGAGCCGCCAAGAAGTTATTAAGGAATGAATAATCCCTCAATATAAATATCTCTCACTTATTTAAA”, the “cleaved RNA product abundance” value was 0.107.

As to “ACAGACGAAGGAGCCGCCAAGAAGTTATTAAGGGATGAAAAATCCCTCAATATAAATATCTCTCACTTATTTAAA”, the “cleaved RNA product abundance” value was 0.576.

As for “ACAGACGAAGGAGCCGCCAAGAAGTTATTAAGGGATGAATAAACCCTCAATATAAATATCTCTCACTTATTTAAA”, the “cleaved RNA product abundance” value came to 0.471.

With “ACAGACGAAGGAGCCGCCAAGAAGTTATTAAGGGATGAATAATCACTCAATATAAATATCTCTCACTTATTTAAA”, the “cleaved RNA product abundance” value amounted to 0.102.

Regarding “ACAGACGAAGGAGCCGCCAAGAAGTTATTAAGGGATGAATAATCCATCAATATAAATATCTCTCACTTATTTAAA”, the “cleaved RNA product abundance” value amounted to 0.327.

As for “ACAGACGAAGGAGCCGCCAAGAAGTTATTAAGGGATGAATAATCCCTCAATATAAATATCTCTCACTTATTTAAA”, the “cleaved RNA product abundance” value was determined as 0.872.

For “ACAGACGAAGGAGCCGCCAAGAAGTTATTAAGGGATGAATAATCCCTTAATATAAATATCTCTCACTTATTTAAA”, the “cleaved RNA product abundance” value is 0.305.

Turning to “ACAGACGAAGGAGCCGCCAAGAAGTTATTAAGGGATGAATAATCCTTCAATATAAATATCTCTCACTTATTTAAA”, the “cleaved RNA product abundance” value stood at 0.531.

As for “ACAGACGAAGGAGCCGCCAAGAAGTTATTAAGGGATTAATAATCCCTCAATATAAATATCTCTCACTTATTTAAA”, the “cleaved RNA product abundance” value worked out at 0.726.

Regarding “ACAGACGAAGGAGCCGCCAAGAAGTTATTAAGGTATGAATAATCCCTCAATATAAATATCTCTCACTTATTTAAA”, the “cleaved RNA product abundance” value was found to be 0.103.

For “ACAGACGAAGGAGCCGCCAAGAAGTTATTAAGTGATGAATAATCCCTCAATATAAATATCTCTCACTTATTTAAA”, the “cleaved RNA product abundance” value was found to be 0.146.

In the case of “ACAGACGAAGGAGCCGCCAAGAAGTTATTCAGGGATGAATAATCCCTCAATATAAATATCTCTCACTTATTTAAA”, the “cleaved RNA product abundance” value was found to be 0.506.

Turning to “ACAGACGAAGGAGCCGCCAAGATGTTATTAAGGGATGAATAATCCCTCAATATAAATATCTCTCACTTATTTAAA”, the “cleaved RNA product abundance” value stood at 0.894.

“ACAGACGAAGGAGCCGCCAATAAGTTATTAAGGGATGAATAATCCCTCAATATAAATATCTCTCACTTATTTAAA”: the “cleaved RNA product abundance” value came to 0.812.

“ACAGACGAAGGAGCCGCGAAGAACTTATTAAGGGATGAATAATCCCTCAATATAAATATCTCTCACTTATTTAAA”: the “cleaved RNA product abundance” value came out at 0.252.

In the case of “ACAGACGAAGGAGCCGCGAAGAAGTGATTAAGGGATGAATAATCCCTCAATATAAATATCTCTCACTTATTTAAA”, the “cleaved RNA product abundance” value amounted to 0.347.

For the sequence “ACAGACGAAGGAGCCGCGAAGAAGTTAATAAGGGATGAATAATCCCTCAATATAAATATCTCTCACTTATTTAAA”, the “cleaved RNA product abundance” value amounted to 0.31.

As for “ACAGACGAAGGAGCCGCGAAGAAGTTATGAAGGGATGAATAATCCCTCAATATAAATATCTCTCACTTATTTAAA”, the “cleaved RNA product abundance” value was 0.248.

On to “ACAGACGAAGGAGCCGCGAAGAAGTTATTAAAGGATGAATAATCCCTCAATATAAATATCTCTCACTTATTTAAA”, for which the “cleaved RNA product abundance” value came to 0.258.

As for “ACAGACGAAGGAGCCGCGAAGAAGTTATTAACGGATGAATAATCCCTCAATATAAATATCTCTCACTTATTTAAA”, the “cleaved RNA product abundance” value worked out at 0.185.
